{"source": "paper PMC8595651", "target": "Fibrillar type I collagen (PureCol atelo-type I collagen, Advanced Biomatrix Cat# 5005) (UniProt P02453)", "sequence (P02453 162-1217, chain 1 of 2)": "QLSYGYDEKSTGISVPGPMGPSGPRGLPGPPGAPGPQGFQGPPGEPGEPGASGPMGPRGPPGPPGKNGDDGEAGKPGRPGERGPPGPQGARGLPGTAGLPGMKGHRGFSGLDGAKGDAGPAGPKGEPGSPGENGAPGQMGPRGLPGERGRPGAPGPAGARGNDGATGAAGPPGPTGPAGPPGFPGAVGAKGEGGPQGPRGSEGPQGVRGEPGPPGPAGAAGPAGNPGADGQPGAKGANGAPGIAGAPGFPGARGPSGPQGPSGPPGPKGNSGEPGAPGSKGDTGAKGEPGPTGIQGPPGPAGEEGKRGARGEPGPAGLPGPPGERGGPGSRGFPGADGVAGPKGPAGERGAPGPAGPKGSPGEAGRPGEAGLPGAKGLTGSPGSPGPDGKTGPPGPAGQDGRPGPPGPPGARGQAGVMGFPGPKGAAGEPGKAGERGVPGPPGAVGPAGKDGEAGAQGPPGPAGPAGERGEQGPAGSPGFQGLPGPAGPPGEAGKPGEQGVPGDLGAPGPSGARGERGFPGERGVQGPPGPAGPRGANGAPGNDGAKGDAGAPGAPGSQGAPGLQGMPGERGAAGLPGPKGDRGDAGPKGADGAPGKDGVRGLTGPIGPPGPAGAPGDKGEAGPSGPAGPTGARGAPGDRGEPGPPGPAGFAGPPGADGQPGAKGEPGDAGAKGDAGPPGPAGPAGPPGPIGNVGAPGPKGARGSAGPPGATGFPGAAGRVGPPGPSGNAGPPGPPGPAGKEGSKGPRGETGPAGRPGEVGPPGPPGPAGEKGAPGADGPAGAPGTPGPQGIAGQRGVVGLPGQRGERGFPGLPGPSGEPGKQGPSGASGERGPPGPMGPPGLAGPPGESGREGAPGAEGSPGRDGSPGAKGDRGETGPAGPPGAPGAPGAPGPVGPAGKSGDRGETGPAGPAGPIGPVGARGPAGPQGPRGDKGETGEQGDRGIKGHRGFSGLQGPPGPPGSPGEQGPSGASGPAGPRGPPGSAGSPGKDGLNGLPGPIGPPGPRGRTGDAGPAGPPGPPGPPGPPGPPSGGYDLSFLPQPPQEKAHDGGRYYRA", "sequence (P02465 80-1117, chain 2 of 2, further chain)": "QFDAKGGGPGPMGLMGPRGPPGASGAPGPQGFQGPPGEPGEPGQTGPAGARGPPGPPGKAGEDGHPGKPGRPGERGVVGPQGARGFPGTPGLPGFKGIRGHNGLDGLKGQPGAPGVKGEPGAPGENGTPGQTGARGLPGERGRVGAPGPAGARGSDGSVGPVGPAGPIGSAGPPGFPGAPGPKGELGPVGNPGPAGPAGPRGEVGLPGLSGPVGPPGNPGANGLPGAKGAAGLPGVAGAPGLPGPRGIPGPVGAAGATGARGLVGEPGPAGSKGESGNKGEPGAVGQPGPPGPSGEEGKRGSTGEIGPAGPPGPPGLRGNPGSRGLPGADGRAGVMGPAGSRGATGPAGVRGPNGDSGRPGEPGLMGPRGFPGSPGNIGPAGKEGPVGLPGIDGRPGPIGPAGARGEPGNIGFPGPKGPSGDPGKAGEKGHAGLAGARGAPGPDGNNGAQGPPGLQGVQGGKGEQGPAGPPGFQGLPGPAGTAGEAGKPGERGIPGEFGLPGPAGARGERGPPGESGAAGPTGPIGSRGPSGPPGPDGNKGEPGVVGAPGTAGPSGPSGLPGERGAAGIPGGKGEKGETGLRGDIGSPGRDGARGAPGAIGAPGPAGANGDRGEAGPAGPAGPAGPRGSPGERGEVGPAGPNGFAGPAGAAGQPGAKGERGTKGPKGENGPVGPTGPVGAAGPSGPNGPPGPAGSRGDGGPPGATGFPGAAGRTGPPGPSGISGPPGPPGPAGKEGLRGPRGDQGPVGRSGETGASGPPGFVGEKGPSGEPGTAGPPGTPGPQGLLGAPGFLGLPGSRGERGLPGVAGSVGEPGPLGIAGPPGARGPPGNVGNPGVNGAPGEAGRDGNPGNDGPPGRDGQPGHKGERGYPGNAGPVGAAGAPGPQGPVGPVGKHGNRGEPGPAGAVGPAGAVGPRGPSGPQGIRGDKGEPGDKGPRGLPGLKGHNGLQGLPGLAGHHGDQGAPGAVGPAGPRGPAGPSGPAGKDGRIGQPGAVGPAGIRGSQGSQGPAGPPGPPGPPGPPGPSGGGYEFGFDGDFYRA", "test": "ELISA"}
{"substance": "WISP1ΔCT (form of WISP1 lacking a CT-domain), overexpressed in 4T1 cells (conditioned medium) (domain or fragment)", "values": [{"measurement": "binding relative to that of WISP1 at equal concentrations", "value": 75, "unit": "%"}]}
